# Patent publication US20140378372A1 (SERPIN PHARMA, published 2014)
# Biological target: hERG (channel tested in the hERG FastPatch assay) (UniProt Q12809 1-1159)
# Assay: cell-based or functional assay
# Sequence of hERG (channel tested in the hERG FastPatch assay) (Q12809 whole entry): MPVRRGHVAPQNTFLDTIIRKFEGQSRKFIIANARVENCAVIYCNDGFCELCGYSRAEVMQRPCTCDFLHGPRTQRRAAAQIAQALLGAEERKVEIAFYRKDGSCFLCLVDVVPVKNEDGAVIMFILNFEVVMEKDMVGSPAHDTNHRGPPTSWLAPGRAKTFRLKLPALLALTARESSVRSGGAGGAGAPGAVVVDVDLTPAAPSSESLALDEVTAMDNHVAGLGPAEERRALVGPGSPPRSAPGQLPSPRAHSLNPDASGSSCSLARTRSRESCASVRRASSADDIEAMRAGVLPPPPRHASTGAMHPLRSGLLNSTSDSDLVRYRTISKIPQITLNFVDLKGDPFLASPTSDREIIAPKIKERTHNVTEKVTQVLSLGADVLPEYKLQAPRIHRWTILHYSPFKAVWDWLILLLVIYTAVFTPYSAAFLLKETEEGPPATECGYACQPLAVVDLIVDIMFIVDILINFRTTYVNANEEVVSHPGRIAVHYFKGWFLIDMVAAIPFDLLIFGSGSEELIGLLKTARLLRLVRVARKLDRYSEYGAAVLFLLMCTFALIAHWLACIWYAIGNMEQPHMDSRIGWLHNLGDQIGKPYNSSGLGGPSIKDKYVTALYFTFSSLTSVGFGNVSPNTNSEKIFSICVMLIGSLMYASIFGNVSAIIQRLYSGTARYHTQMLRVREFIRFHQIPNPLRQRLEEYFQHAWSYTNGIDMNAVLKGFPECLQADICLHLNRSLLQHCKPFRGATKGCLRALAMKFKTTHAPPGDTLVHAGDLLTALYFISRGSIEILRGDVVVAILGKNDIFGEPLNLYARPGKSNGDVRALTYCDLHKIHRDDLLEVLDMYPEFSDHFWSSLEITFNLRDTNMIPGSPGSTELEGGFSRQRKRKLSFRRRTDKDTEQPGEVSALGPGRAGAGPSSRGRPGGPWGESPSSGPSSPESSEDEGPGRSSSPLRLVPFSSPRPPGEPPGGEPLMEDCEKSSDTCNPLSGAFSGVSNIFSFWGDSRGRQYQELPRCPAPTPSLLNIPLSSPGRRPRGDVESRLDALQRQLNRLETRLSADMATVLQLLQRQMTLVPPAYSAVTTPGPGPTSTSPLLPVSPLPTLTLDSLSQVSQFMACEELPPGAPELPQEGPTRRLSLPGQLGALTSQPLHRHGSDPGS
binder,measurement,value
"VKFNKPFVFLMIEQNTK [SP16 peptide (C36 Core sequence, long; derived from human alpha-1-antitrypsin)]","IC50 value (hERG FastPatch assay, test conc 0.008-25 uM)",> 25 µM
